From US20260103529A1, “Amino Acid Sequences Directed Against the Melanocortin 4 Receptor and Polypeptides Comprising the Same for the Treatment of MC4R-Related Diseases and Disorders” (Confo Therapeutics N.V., priority 2022, published 2026) come the findings set out here.

Common to all, as to experiment: cell-based or functional assay
Experiment [1] addresses human MC5R (melanocortin 5 receptor) (human) (UniProt P33032).
Experiment [2] has as its target human wild type MC4R (melanocortin 4 receptor) expressed on HEK293/HEK293T cells (human) (UniProt P32245).
Experiment [3] has as its target human MC1R (melanocortin 1 receptor) (human) (UniProt Q01726).
The target in experiment [4] is human MC3R (melanocortin 3 receptor) (human) (UniProt P41968).
human MC3R (melanocortin 3 receptor) (human), sequence (P41968 whole entry): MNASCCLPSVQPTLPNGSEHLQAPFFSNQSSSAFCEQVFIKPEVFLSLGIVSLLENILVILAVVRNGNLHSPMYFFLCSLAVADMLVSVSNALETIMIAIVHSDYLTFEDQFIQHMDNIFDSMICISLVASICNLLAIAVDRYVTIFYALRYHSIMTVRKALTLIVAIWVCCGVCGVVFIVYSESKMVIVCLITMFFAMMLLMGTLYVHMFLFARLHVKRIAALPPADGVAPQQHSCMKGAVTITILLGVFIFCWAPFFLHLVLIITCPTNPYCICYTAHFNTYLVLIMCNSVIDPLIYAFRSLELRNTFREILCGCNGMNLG

human wild type MC4R (melanocortin 4 receptor) expressed on HEK293/HEK293T cells (human), sequence (P32245 whole entry): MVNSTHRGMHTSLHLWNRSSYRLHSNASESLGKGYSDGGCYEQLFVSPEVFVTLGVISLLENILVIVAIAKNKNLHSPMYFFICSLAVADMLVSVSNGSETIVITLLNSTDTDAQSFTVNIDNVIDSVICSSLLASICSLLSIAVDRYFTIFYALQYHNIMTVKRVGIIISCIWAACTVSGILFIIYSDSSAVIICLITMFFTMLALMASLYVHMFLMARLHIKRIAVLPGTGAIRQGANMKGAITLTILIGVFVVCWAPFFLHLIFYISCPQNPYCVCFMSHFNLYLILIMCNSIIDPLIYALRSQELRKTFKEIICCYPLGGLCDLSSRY
human MC1R (melanocortin 1 receptor) (human), sequence (Q01726 whole entry): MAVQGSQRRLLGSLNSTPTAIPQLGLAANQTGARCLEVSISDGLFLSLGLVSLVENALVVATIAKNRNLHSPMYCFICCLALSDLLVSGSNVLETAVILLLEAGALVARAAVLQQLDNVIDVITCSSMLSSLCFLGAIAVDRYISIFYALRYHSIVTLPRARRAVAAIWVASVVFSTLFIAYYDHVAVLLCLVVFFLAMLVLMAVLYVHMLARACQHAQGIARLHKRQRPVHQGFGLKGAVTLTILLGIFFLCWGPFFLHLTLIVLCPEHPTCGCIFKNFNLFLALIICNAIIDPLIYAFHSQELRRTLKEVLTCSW
human MC5R (melanocortin 5 receptor) (human), sequence (P33032 whole entry): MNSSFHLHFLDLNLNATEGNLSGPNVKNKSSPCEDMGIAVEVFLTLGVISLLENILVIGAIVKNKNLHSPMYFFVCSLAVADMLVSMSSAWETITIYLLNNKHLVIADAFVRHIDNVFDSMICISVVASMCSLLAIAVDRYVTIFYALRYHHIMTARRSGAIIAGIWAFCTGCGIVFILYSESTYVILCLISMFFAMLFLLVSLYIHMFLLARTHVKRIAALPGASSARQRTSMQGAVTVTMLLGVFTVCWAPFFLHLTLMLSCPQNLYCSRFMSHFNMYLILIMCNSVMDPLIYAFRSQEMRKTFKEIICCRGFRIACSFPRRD

In experiment [1], setmelanotide (peptide) yielded an in vitro cAMP potency EC50 (GloSensor) of 451 nM. For the same substance, in experiment [2], the Gs ConfoSensor, 1 mM Ca^2+, EC50 is 0.6 nM; the Gs ConfoSensor, No Ca^2+, EC50 was found to be 12 nM; the in vitro cAMP potency EC50 (GloSensor) was 2 nM; the β-arrestin recruitment, 1 mM Ca^2+, EC50 was 1.3 nM. This substance showed a β-arrestin recruitment, No Ca^2+, EC50 in experiment [2] of 18 nM. Further, the in vitro cAMP potency EC50 (GloSensor) in experiment [3] worked out at 11.5 nM. Besides, the in vitro cAMP potency EC50 (GloSensor) in experiment [4] was 2.1 nM.
